According to patent US8632989B1, “Mutant insulin degrading enzyme and methods of use” (University of Kentucky Research Foundation, priority 2011, dated 2014):

Target: T1, Abz-GGFLRKHGQ-EDDnp (Rattus norvegicus, UniProt P35559)
T1 construct: hexahistidine (N); made in house; host or cells: Sf9 insect cells (baculovirus, pFastBac HTb)
T1 sequence (P35559 41-1019): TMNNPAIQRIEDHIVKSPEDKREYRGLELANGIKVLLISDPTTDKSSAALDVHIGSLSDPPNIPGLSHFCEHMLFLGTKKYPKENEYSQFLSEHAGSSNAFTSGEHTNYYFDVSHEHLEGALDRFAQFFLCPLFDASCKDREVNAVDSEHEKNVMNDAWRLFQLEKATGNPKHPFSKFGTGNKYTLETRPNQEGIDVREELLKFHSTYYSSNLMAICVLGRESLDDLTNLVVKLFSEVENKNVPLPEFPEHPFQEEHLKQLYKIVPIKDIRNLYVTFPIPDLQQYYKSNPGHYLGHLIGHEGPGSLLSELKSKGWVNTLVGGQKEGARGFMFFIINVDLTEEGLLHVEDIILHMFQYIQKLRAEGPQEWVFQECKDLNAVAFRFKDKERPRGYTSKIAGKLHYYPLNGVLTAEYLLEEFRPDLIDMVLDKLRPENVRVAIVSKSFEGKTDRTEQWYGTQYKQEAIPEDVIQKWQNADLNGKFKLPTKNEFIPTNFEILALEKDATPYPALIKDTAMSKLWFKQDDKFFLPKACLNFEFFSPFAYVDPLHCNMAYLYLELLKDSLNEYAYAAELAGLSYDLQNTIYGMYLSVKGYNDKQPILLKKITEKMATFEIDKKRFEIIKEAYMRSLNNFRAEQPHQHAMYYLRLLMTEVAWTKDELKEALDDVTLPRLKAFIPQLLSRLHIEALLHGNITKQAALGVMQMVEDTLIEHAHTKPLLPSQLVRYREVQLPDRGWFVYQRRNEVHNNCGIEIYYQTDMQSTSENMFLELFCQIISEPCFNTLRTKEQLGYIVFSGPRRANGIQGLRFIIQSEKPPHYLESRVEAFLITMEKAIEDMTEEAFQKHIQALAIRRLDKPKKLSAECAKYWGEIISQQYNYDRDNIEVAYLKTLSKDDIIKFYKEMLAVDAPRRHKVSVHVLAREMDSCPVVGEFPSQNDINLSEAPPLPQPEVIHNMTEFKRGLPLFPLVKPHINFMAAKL
Experiment: Activation by ATP of Abz-[…]-EDDnp hydrolysis, IDE and ATP binding site mutants
Format: biochemical
Conditions: 10 μM Abz-GGFLRKHGQ-EDDnp as substrate
Description: Activity was determined in 50 mM Tris-HCl, pH 7.4 with 10 μM Abz-[…]-EDDnp (SEQ ID NO:3) as substrate at the indicated concentrations of ATP (panel A), PPPi (panel B) or, TNP-ATP (panel C). Each reaction contained 0.5 μg of enzyme.
IDE activity was determined by measuring the increase in fluorescence that occurs when the enzyme cleaves the internally quenched fluorogenic substrate Abz-[…]-EDDnp (SEQ ID NO:3) at the R—K bond (Song et al., Journal of Biologial Chemistry 276, 1152-1155 (2001)). The reaction was followed on a SpectraMax Gemini XS fluorescence plate reader using an excitation and emission wavelengths of 318 nm and 419 nm, respectively. Initial velocities were determined using SoftMax Pro 4.0 and kinetic constants calculated using GraphPad Prism 4.0. ATPase activity was measured by following Pi release with acid-molybdate as described by Harder et al. (Harder et al., Biochemical Journal 298 (Pt 2), 395-401 (1994)).

B1: IDE: Native rat insulin degrading enzyme (SEQ ID NO:1), expressed as hexahistidine fusion protein in Sf9 insect cells (protein, listed as Rattus norvegicus)
chain: MRNGLVWLLHPALPSTLHSILGARPPPVKRLCGFPKQIYSTMNNPAIQRIEDHIVKSPEDKREYRGLELANGIKVLLISDPTTDKSSAALDVHIGSLSDPPNIPGLSHFCEHMLFLGTKKYPKENEYSQFLSEHAGSSNAFTSGEHTNYYFDVSHEHLEGALDRFAQFFLCPLFDASCKDREVNAVDSEHEKNVMNDAWRLFQLEKATGNPKHPFSKFGTGNKYTLETRPNQEGIDVREELLKFHSTYYSSNLMAICVLGRESLDDLTNLVVKLFSEVENKNVPLPEFPEHPFQEEHLKQLYKIVPIKDIRNLYVTFPIPDLQQYYKSNPGHYLGHLIGHEGPGSLLSELKSKGWVNTLVGGQKEGARGFMFFIINVDLTEEGLLHVEDIILHMFQYIQKLRAEGPQEWVFQECKDLNAVAFRFKDKERPRGYTSKIAGKLHYYPLNGVLTAEYLLEEFRPDLIDMVLDKLRPENVRVAIVSKSFEGKTDRTEQWYGTQYKQEAIPEDVIQKWQNADLNGKFKLPTKNEFIPTNFEILALEKDATPYPALIKDTAMSKLWFKQDDKFFLPKACLNFEFFSPFAYVDPLHCNMAYLYLELLKDSLNEYAYAAELAGLSYDLQNTIYGMYLSVKGYNDKQPILLKKITEKMATFEIDKKRFEIIKEAYMRSLNNFRAEQPHQHAMYYLRLLMTEVAWTKDELKEALDDVTLPRLKAFIPQLLSRLHIEALLHGNITKQAALGVMQMVEDTLIEHAHTKPLLPSQLVRYREVQLPDRGWFVYQRRNEVHNNCGIEIYYQTDMQSTSENMFLELFCQIISEPCFNTLRTKEQLGYIVFSGPRRANGIQGLRFIIQSEKPPHYLESRVEAFLITMEKAIEDMTEEAFQKHIQALAIRRLDKPKKLSAECAKYWGEIISQQYNYDRDNIEVAYLKTLSKDDIIKFYKEMLAVDAPRRHKVSVHVLAREMDSCPVVGEFPSQNDINLSEAPPLPQPEVIHNMTEFKRGLPLFPLVKPHINFMAAKL
modifications: hexahistidine tag; wild-type Insulin Degrading Enzyme (IDE) from rat
  activation by ATP: roughly 150 fold
